The chains are these.
B1: HDV Ribozyme (parent)
chain: GGCCGGCAUGGUCCCAGCCUCCUCGCUGGCGCCGGCUGGGCAACAUUCCGAGGGGACCGUCCCCUCGGUAAUGGCGAAUGGGACCCA

The variants in this series derive from B1. Kind of series: self-cleavage, relative activity (ratio to wild type); higher = more cleavage; co-transcriptional.
Take GGCCGGCAUGGUCCCAGCCUCCUCGCUGGCGCCGGCGGGGCAACAUUCCGAGGGGACCGUCCCCUCGGUAAUGGCGAAUGGGUCCCA: the self-cleavage was determined as 0.156.
The result for GGCCGGCAUGGUCCCCGCCUCCUCGCUGGCGCCGGCUGGGUAACAUUCCGAGGGGACCGUCCCCUCGGUAAUGGCGAAUGGGACCCA reads 0.806.
Under GGCCGGCAUGGUCCCAGCCGCCUCGCUGGCGCCGGCUGGGCAACAUUGCGAGGGGACCGUCCCCUCGGUAAUGGCGAAUGGGACCCA stands 0.222; under GGCCGGCAUGGUCCCAGCCUCCUCGCUGGCGCCGGCUGGGCAACAUCCCGAGGGGACCGUCCCCUCGGUAAUGGCGUAUGGGACCCA, 0.285; under GGCCGGCAAGAUCCCAGCCUCCUCGCUGGCGCCGGCUGGGCAACAUUCCGAGGGGACCGUCCCCUCGGUAAUGGCGAAUGGGACCCA, 0.539.
Consider GGCCGGCAUGGUCCCAGCCUCCUCGCUGGCGCCGGUUGGGCAACAUUCCGAGGGGACCGUCCCCUCGGUAAUGGCGCAUGGGACCCA, for which the self-cleavage turned out to be 0.145.
Under GGCCGGCAUGGUCCCAGCCUCCUCGCUGGCGCCGGCUGGGCAACAUUCCGAGGGGUCCGUCCCCUCGGUAAUGGCGAAUGGCACCCA stands 0.172; under GGCCGGCAUGGUCCCAGCCUCCUCGCUGGCGCCGGCUGGGCAACAUUCCGGGGGGACCGUCCCCUCGGUAAUGGCGAAAGGGACCCA, 0.675.
The result for GGCCGGCAUGGUCCCAGCCUCCUUGCUGGCGCCGGCUGGGCAACAUUCCGAGGGGACCGUCCGCUCGGUAAUGGCGAAUGGGACCCA reads 0.76; that for GGCCGGCGUGGUCCCAGCCUCCUCGCUGGCGCCGGCUGGGCAACAUUCCGAGGGGACCAUCCCCUCGGUAAUGGCGAAUGGGACCCA, 0.743.
For GGCCGGGAUGGUCCCAGCCUCCUCGCUGGCGCGGGCUGGGCAACAUUCCGAGGGGACCGUCCCCUCGGUAAUGGCGAAUGGGACCCA, the self-cleavage was determined as 0.237.
As for GGCCGGCAGGGUCCCAGCCUCCUCGCUGGCGCCGGCUGGGCAACAUUCCGCGGGGACCGUCCCCUCGGUAAUGGCGAAUGGGACCCA, the self-cleavage worked out at 1.03.
The result for GGCCUGCAUGGUCCCAGCCUCCACGCUGGCGCCGGCUGGGCAACAUUCCGAGGGGACCGUCCCCUCGGUAAUGGCGAAUGGGACCCA reads 0.578; that for GGCCGGCAUGGUCCCAGCCUCCUCGCUGGCGCCGGCUGGGCAACAUUCCGAGGAGACCGUCCCCUCGGUAAUGGCUAAUGGGACCCA, 0.799; that for GGCCGGCAUGGUCCCAGCCUCCUCGCUGUCGCCGCCUGGGCAACAUUCCGAGGGGACCGUCCCCUCGGUAAUGGCGAAUGGGACCCA, 0.
The result for GGCCGGCAUGGUCCCAGCCACCUCGCUGGCGCCGGCUGGGCAACAUUCCGAGGGGACCGUCCCCUCGGUAAUGGUGAAUGGGACCCA reads 0.0489.
On to GUCCGGCAUGGUCCCAGCCUCUUCGCUGGCGCCGGCUGGGCAACAUUCCGAGGGGACCGUCCCCUCGGUAAUGGCGAAUGGGACCCA, for which the self-cleavage was 0.032.
Consider GGCCGGCAUGGUCCCAGCCUCCUCGCUGGCGCCGGCUGGGCAACAUUCCGAGGGGACCGUCCCAACGGUAAUGGCGAAUGGGACCCA, for which the self-cleavage stood at 0.895.
Under GGCCGGCAUGGUCCCAGCCUCCUCGCUGGCGCCGGCUGGGCAACUUUCCGAGGUGACCGUCCCCUCGGUAAUGGCGAAUGGGACCCA stands 0.8; under GGCCGGCAUGGUCCCAGCCUCCUCGCUGGCGCCGGCUGGGCAACAUUCCGUGGGGACCGUCCCCUCGGUAAUGGCGAAUGGCACCCA, 0.282; under GGCCGGCAUGGUCCCAGCCUCCUCGCUGGCGCCGGCUGGGCGACAUUCCGAGGGGACCGUCCCCUCGGUAAUGGCGAAUGGGACCCC, 0.521.
Under GGCCGGCAUCGUCCCAGCCUCCUCGCUGGCGCCGGCUCGGCAACAUUCCGAGGGGACCGUCCCCUCGGUAAUGGCGAAUGGGACCCA stands 0.0941; under GGCCGGUAUGGUCCCAGCCUCCUCGCUGGCGCCGGCUGGGCAACAUUCCGAGGGGACCGUCCCCUCGGUAACGGCGAAUGGGACCCA, 0.268.
Under GGCCGGCAGGGUCCCAGCCUCCUCGCUGGCGCCGGCUGGGCAACAUUCCGAGGGGACCGUCCCCUCGGUAAUGUCGAAUGGGACCCA stands 0.415; under GGCCGGCAUGGUCCCAGCCCCCUUGCUGGCGCCGGCUGGGCAACAUUCCGAGGGGACCGUCCCCUCGGUAAUGGCGAAUGGGACCCA, 0.0475; under GGCCGGCAUGGUCCCAGCCUCCUCGCUGGCGCCGGCUGGGCAACAUUCCGAGGGGACCGUCCCGUCGGUAAUGGCGAAUGGAACCCA, 0.535.
As for GGCCGGCAUGGUCCCAGCCUCCUCGCUGGCGCCGGCUGUGCAACAUUCCGAGGGGACCGUCCCCUCGCUAAUGGCGAAUGGGACCCA, the self-cleavage turned out to be 0.532.
The result for GGCCGGCAUGGUCCCAGCCUCCUCGCUGGCGCCGGCAGGGCAACAUUCCGAGGGGACCGUCCCCUCGGUAAUGGCGAAGGGGACCCA reads 0.
GGCCGGCAUGGUCCCAGCCUCCUCGCUGGCGCCGGCUGGGCAACAUUCCGAGGGGACCGUCCCCUCGGUAAUGGCUCAUGGGACCCA: the self-cleavage is 0.295.
Under GGCCGGCAUGGUCCCAGCCUCCUCGCUGGCGCCGGCUGGGCAACAUUCCGAGGGGACGGUACCCUCGGUAAUGGCGAAUGGGACCCA stands 1.14.
Turning to GGCCGGCAUGGUCCCAGCCUCCUCGCUGGCGCCGGCUGGGCAACAUUCCGAGGGGACCGACCCCUCGGGAAUGGCGAAUGGGACCCA, the self-cleavage was determined as 1.01.
The result for GGCCGGCAUGGUCCCAGCCUCCUCGCUGGCGCCGGCUGGACAACAUUCCCAGGGGACCGUCCCCUCGGUAAUGGCGAAUGGGACCCA reads 0.92.

The record behind these values is the RNAGym collection of RNA variant scans (doi:10.7554/elife.80360).
